Data on 13 sequences can be found in the DeepSol protein solubility set.

The series is described as follows: soluble on expression in E. coli; label from the status in PepcDB or PDB records.
In the case of “MNNHIEALSYYLGAFVDELTLLNVCDVVISPGSRSTPIALLMEQHEGMNTYLHVDERSAGFFALGIAKAKKRPVALLCTSGTAAANYYPAVCEAFHSRVPLIVLTADRPHELRDVGAPQAMNQINLYGTFVKQFTEMALPEASEAMYHYARLTTQRMIASACLAPQGPVHLNFPVREPLIPDFSLESLWDKGRGEYTGVVQQGNAVMPSEYVDSLVGRLSHMEKGLIICGDDSHSEIAAFATQLAEKTGYPILADPLSNIRSGHHDKTMVIDCYDTFLRNELLKETWKPDVLIRFGGMPVSKALTQFIKKQTKAVHIVVDESGQWRDPALVATEVVQASDIAFCSALIEKMPVMKKNDWFRMWQHINEKTKETLREMETYDTAFEGRVITDIVRVLPEGATLFASNSMPIRDTDSFFFTSDKNIQVMANRGVNGIDGIISTALGASMICDPLVLVIGDLSFYHDLNGLLAAKLHELNITIVVVNNDGGGIFSFLPQYEKKEHFESLFGTPIGLDYEHVVTMYGGSFSRVNGWEQFREEVQKGVTTEGLHVVEICTNRDENLTLHRTLWAKTQDVITTSLQGESK”, the “soluble on expression in E. coli” value is given as “soluble”. For “MGHHHHHHSHMEYSCGTAAIRGTKELGEGQHFWEIKMTSPVYGTLTFFKNRKCIGVAATKLQNKRFYPMVCSTAARSSMKVTRSCASATSLQYLCCHRLRQLRPDSGDTLEGLPLPPGLKQVLHNKLGWVLSMSCSRRKAPVSDPQAATSAHPSSREPRPCQRKRCRRT” the value was “not soluble”; for “MGSDKIHHHHHHMPRGPTKKKTEDTTSQSLESKLWATADKLRGHLDAADYKHVVLGLIFLKYISDRFAQRHEEIIREEAGTYAAEDRDEYTAEGVFWVPASSRWAVVQTAAKQPDIGKRIDGAMTDIERENPHLKNILPKGYARPTLDQRRLGELVDLIGTIGLGTAEHQARDTLGRVYEYFLGRFASAEGKRGGEFYTPASVVRTLVTMLAPYKGRIYDPCCGSGGMFVQSEKFIEAHGGKVGDISVYGEESNPNTWKLALMNLAIRGIEADLGPEAADTFHKDLHPDLRADYILANPPFNISDWGGDLLRDDKRWQYGIPPTGNANFAWVQHMVHHLAPYGIAGFVLANGSMSSNTSGEGEIRKNLIEADLVDCMVAMPGQLFYSTQIPVCLWFLAKNRDDGRGMTGKELFERTGEVLFIDARNMGFMADRTHRELTDEDIQKIADTYHNWRGDGDGEYADIPGFCKAASLDDIRKNGHVLTPGRYVGAAAKDDDGEPFEEKMDRLTKELSAQLAEGRRLEDEMLKNFRVLGYEL”, “not soluble”. For “MGSDKIHHHHHHMEIHSSAAAEVFPVCRSLLGKLPAHSHNRSVAPTVCDYYPQIMKTYNSKMTTQHSSDIRNSQNISASFVTPHDAPVTSRKYVPKFNSNNHRIKTAAAFEKGSDIYHAVRPNYPNSVIELLNLSPNSRVLDIGCGTGKLTEQIAQQTSSVYALDPSKDMLDSFRSTLDIPSWQATAEQTAVSDSRFSTLTCAQTWHWVEPLAASAELDRISTDDAQLLLVWNTLDVSVPWVHRLSRIMHSGDTLAEGFIPHVAQPWELVSVLRGKHAQELYPDQIHTLAHTRSYWLRASEKTREKLTHNLSWYLTDHLELPSTSLVEIPYRFDAFLYKKALVKTQ” the value was “not soluble”; for “MGSDKIHHHHHHMPEHDVRLQQLTVWLDEQLNDLFRDNAWGEVPAGSLTAASSDASFRRYFRWQGAGHSFVIMDAPPPQENCRPFVAIDHLLASADVHVPLIHAQDLERGFLLLGDLGTQTYLDIINADNADGLFADAIDALLKFQRLPMDAPLPSYDDALLRREVELFPEWYVGRELGLTFTDAQKATWQRVSQLLIDSALAQPKVLVHRDYMPRNLMQSTPNPGVLDFQDAVYGPVTYDITCLFKDAFVSWPQARVEGWLGDYWQQAQAAGIPVHAEFEAFHRASDLMGVQRHLKVIGIFARICHRDGKPRYLGDVPRFFAYINEVIGRRPELAELGELIAELQAGARA”, “not soluble”. For “MQQALLDHLRVVTEEEQRILDGVAEVDKDLYTSGKDFTVDSAKMLSEGKLIAVRTHTRFVHFPSHRHNYIEVLYVCQGQLTNIIGGKEVVIHAGELLFLNQYTRHEILPAGEEDIAINFMILPEFFDVAYTMAGNNNVLADFLVNVLRQDEERGEYLHFKVAEVLQIQNLLENMIYSLVTGKGDQNRINQTTMGLIFLYLLESVQYAEMRLPNQYENMIIMTTLDYIEQQYKTATLTELCEKLHLPMHMLSKMIRKNTGFNFKELLQRKRLNKAVELMCETDLPISDIIAAVGYENGSYFHRVFKERYHTTPRAFRVANGKEERVRL” the value was “not soluble”.

In the case of “PNKDVKIVKEVLLYKGSPFTGNIIMNTEDQKDGYIGGISLKNGHLDGLSELKNDRQGQHMRFTVVGGKFDGELIMNDPSQNTYIMLDINKGAIVKYLADIQGVYKYDLNFVNNLANGSMEAQGQIFTFKNGIAKGPQGQELKLTLNPATGDLEMEAFVNGKAAGKQTIPNVLTPQYLESFLFQSITDTNN”, the “soluble on expression in E. coli” value is “not soluble”.

As for “MSLREINMLRNISSCLFPHISTITSPNHYLSEWDDWEKQGLPEEQRTEAVRRLRACLTSKGHKLDLRALALSSLPVLPACIKKLDVSCNKLTILTDLPENIKELIARDNFLTHISALPHYLITLDVSENQLENLPLLPDTIKSLSAEYNRLSTLPSLPLNLKKLEVRNNELQTLPSLPSNLKILKVAHNHLTELPPLPRRLQLLFAYSNRLSNLPNIQENIIMRRFFYFENNQITTIPTNLFRLDPHITIEIANNPLSDQTLLFLIQQTSVPNFNGPQFRISLSDEGHHHHHH”, the “soluble on expression in E. coli” value was “soluble”. Take “MGSDKIHHHHHHMSYITTKNQYITVSNNKIAYRELSKGKSDIPLVMLVHLAATLDNWDPKLLDLLAEQHHVIVLDLPGVGASQGKVAPTIPGMAEQAVSIIKALGYEKINLLGLSMGGFIAQEIVRLDSQLVNRLILAGTGPRGGFEVDKVTGKTFRYMLKAGLERVDPKRYIFYNHDEAGRLEAEKVLGRMGQRSAAHADKDMNVPGFLTQLKAIKRWGREPQDDMTFITQPTLIVNGDKDMQVPTENSYTMHEKIKNSQLIIYPNAGHGSIFQNVEDFSKALLAFLEETNA”: the “soluble on expression in E. coli” value was “not soluble”. The result for “MMRCPECSTEGWRVLPLTVGAHVKEGLWSKIKGDFYFCSLESCEVVYFNEQTVFRKGELKTRVGVKEREEPKPVCYCNRVTEKMLLEAAEKFGKEKAVEITGAGKGKWCVVTNPSGRCCHWHLERLGFPVGGEKKAAKRVEIKLDGLTCMGCVSAVKAALEEAGANVVEIGLDRAVVEVDEEAELQKLVEAVEGAGYSARLEKR” reads “not soluble”; that for “MGSDKIHHHHHHMGNVIVVTSGKGGVGKTTITANLGCALAKLGEKVCLIDADIGLKNLDIVLGLENRIVYTMIDVVNGKVSPQEALVKHKMLKNLYLLPASQIATKEMISPNDMKAIVKELIPHFDYIIIDSPAGIERGFRNAVAPAERVLVVTTPELPAISDADRVIGLLENFGFSDEKINVIINRFKPHMVKKGEMLTTDDIKHTLSLEIIAVIPDSEDIIVASNTGIPVSLNGNSRISKNFENLARRIRGEGVPLENDFVTVSKGLIDTLKDFFSKLKRG”, “not soluble”; that for “MKFDVIIVGAGPGGMFAAYKLAGKLNTAIFEMGRDISKRKCPSDLSESYCTKCNPCNITSGVGGAGGLSDGKLNYVHPEYPSSFSVGGDFDFLDPNYLIEKMNEVDEIFLKHGAPDELYGDDLEKIEDFLKRANAAGIEFVPLRQRHVGSDELPKVVKSIEDKLKKEGVKIYTRKTVVDIDPERKVVRTEKGEEFGYDYLIIAVGRSGASWLEKWARDYNLEVAENSKAIDVGVRVEVPASIMDDITSAIYDPKLRVITKRHDDYMRTFCTCPRGWVIREDYGDFCLVNGHSKAKEKSSNTNFALLGHYEFTEPFDEPNEWGRDLARITTKLGGGNPIVQRLKDLRLGRRSTESRIKNNRLVQPTLKTAIPGDISLAYPGRAIDDILDALERLDKVIPGVADDSTLLYAPEVKFYSLKLKVDEWMKTNIPYIYAIGDGAGVSRGIVGAAVTGLIAAEGILRERGMELEHHHHHH”, “soluble”. The result for “MKVSLVIPTYNSKDLVAPCLVSLNHQRLDEADEFEVVLVDDGSTDGTGEVVDSLPLTYRIRRVYVPRTEKSCRSAARNAGIRAADGELIVFVDGDQIIDPLFVQEHIRCHRGRPAIVAIGFRDYQAPGAVDLALLERSFTPEAFPPVADQDERAQVTATLSQNMGNLATGWHFFYGCNVSVRKEHLLAVGGFDENIQKWSFEDVELGYRLHRRGLAFVHNLYSRVYHQFHPESDQERYADWRENFEYFTSKHPELEVRLQWVLDSYFDPGRTSRPSWFDAYLRFEFACRAVAERLPIGHSYEVLVVDADNLDSAEREIARVGAAHDLIVVDITDDRELPTAVQAMRTGRELLYFKEPSPELLQQAAKSFGCAALLKYAAEVLEHHHHHH” reads “soluble”.
